Target: recombinant PRCP51 (recombinant human prolylcarboxypeptidase, predicted molecular mass 51 kDa) (human) (UniProt P42785)
Assay: cell-based or functional assay

Chain of recombinant PRCP51 (recombinant human prolylcarboxypeptidase, predicted molecular mass 51 kDa) (human) (P42785 46-496 limits assumed): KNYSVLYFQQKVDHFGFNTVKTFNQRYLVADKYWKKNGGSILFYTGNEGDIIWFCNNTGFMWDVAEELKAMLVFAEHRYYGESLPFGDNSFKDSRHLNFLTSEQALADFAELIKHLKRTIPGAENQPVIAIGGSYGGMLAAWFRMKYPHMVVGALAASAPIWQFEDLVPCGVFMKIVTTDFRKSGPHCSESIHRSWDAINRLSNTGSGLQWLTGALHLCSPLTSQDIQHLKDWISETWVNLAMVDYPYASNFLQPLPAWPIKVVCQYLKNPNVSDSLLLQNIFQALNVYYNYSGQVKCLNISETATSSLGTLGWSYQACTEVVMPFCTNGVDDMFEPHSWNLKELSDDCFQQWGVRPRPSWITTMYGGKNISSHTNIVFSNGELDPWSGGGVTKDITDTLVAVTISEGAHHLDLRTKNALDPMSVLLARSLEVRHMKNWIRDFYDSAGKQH

## angiotensinogen II (AgII) (from UniProt P01019 25-32) (peptide)
  inhibition of rPRCP51-induced prekallikrein (PK) activation (residual kallikrein activity on S2302), IC50: 150 µM
